Test results reported in US20210079109A1 (Regeneron, published 2021).
Positions count from the first letter of the chain named. Blank lines part the entries; values can stand above or below the binder they belong to.

Columns and labels:
[1] = target: T1, recombinant human CD63 extracellular loop 2 expressed with a C-terminal Myc-Myc-hexahistidine (human); assay: SPR Biacore, mAb captured, 37C
T1 construct: also called hCD63 EC loop 2-MMH; human CD63 EC loop 2-MMH
Experimental: (§1) Equilibrium dissociation constants (KD) for different CD63 (EC2) loop reagents binding to purified anti-CD63 monoclonal antibodies were determined using a real-time surface plasmon resonance based Biacore T200 biosensor or Biacore 2000 biosensor. All binding studies were performed in 10 mM HEPES, 150 mM NaCl, 3 mM EDTA, and 0.05% v/v Surfactant Tween-20, pH 7.4 (HBS-ET) running buffer at 25° C. and 37° C. The Biacore CMS sensor chip surface was first derivatized by amine coupling with either a rabbit anti-mouse Fc specific polyclonal antibody (GE Healthcare, Cat #BR100838) or an anti-human Fab kit (GE Healthcare, Cat #28958325) to capture anti-CD63 monoclonal antibodies. […] The association rate (Kₐ) and dissociation rate (kd) were determined by fitting the real-time binding sensorgrams to a 1:1 binding model with mass transport limitation using Scrubber 2.0c curve-fitting software. Binding dissociation equilibrium constant (KD) and dissociative half-life (t½) were calculated from the kinetic rates as: […]
(§2) Binding kinetics parameters for human CD63 EC loop 2 protein binding to different anti-CD63 monoclonal antibodies of the invention at 25° C. and 37° C. are shown in Tables 6 through 9.

[2] = target: T2, recombinant human CD63 extracellular loop 2 expressed with a C-terminal human Fc tag (human); assay: SPR Biacore, mAb captured, 37C
T2 construct: also called hCD63 EC loop 2-hFc; human CD63 EC loop 2-Fc
T2 sequence (chain, as listed by the source limits assumed): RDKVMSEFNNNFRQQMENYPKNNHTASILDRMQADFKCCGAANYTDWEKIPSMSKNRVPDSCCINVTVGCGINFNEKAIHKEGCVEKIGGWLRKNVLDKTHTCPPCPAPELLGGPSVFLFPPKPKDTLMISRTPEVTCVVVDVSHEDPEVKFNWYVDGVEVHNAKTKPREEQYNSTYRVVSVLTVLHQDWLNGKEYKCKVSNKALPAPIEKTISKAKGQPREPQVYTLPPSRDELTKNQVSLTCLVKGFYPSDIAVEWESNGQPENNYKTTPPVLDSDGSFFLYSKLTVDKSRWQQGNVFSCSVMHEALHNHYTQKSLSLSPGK
Experimental: as §1, §2

[3] = target: T1, recombinant human CD63 extracellular …; assay: SPR Biacore, mAb captured, 25C
Experimental: as §1, §2

[4] = target: T2, recombinant human CD63 extracellular …; assay: SPR Biacore, mAb captured, 25C
Experimental: as §1, §2

human CD63 [5] = target: T3, human CD63 (human, UniProt P08962 2-238); assay: ECL, LNCAP cells
T3 construct: stably transfected in NIH3T3/hCD63; The cell line is named under assay; also called hCD63
T3 sequence: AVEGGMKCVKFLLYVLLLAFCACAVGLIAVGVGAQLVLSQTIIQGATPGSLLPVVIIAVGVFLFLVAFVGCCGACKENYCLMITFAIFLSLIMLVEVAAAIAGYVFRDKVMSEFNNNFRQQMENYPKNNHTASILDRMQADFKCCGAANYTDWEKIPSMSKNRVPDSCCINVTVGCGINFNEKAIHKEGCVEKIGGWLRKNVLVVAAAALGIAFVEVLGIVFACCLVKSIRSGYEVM
Experimental: (§3) LNCAP cells were determined to have a lower human CD63 copy number than U87MG cells. Non-transfected NIH3T3 cells, which have no detectable expression of human CD63 by fluorescence activated cell sorting (FACS), were included as a negative control.
(§4) Briefly, cell lines were rinsed once in PBS buffer without Ca²⁺/Mg²⁺ and incubated for 10 minutes at 37° C. with Enzyme Free Cell Dissociation Solution (Millipore, Cat #S-004-C) to detach the cells. Cells were then washed once with PBS with Ca²⁺/Mg²⁺ and counted with a Cellometer™ Auto T4 cell counter (Nexcelom Bioscience, LLC). Approximately 2.0×10⁴ NIH3T3/hCD63, LNCAP, U87MG or NIH3T3 cells were seeded separately onto 96-well carbon electrode plates […]) and were then incubated for one hour at 37° C. Nonspecific binding sites were blocked with 2% BSA (w/v) in PBS with Ca²⁺/Mg²⁺ for one hour at room temperature (RT). Solutions containing anti-CD63 antibodies or isotype control antibodies at a range of concentrations (1.7 pM to 100 nM) in 0.5% BSA (w/v) in PBS with Ca²⁺/Mg²⁺, as well as control buffer alone, were then added in duplicate to the plate-bound NIH3T3/hCD63, LNCAP, U87MG or NIH3T3 cells and incubated for one hour at RT. Plates were subsequently washed to remove unbound antibodies using an AquaMax2000 plate washer with a cell washing head (MDS Analytical Technologies). […] Plates were washed and then incubated with Read Buffer (MSD, Cat #R92TD-2) according to the manufacturer's instructions. Luminescent signals were measured using a SECTOR Imager (MSD).

human CD63 [6] = target: T3, human CD63; assay: ECL, U87MG cells
Experimental: as §3, §4

human CD63 [7] = target: T3, human CD63; assay: ECL, NIH3T3/hCD63 cells
Experimental: as §3, §4

T1 sequence (chain, as listed by the source limits assumed): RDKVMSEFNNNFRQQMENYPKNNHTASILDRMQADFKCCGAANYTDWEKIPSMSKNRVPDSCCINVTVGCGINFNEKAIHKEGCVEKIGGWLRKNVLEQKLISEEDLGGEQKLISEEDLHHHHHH

B1: H4H11996P2 (antibody, V domains shown)
VH: QVQLVESGGGLVKPGGSLRLSCAASGFIFTDYFMNWIRQAPGKGLEWVSYISNSGNILYYADSVKGRFTISRDNAKASLYLQMSSLKAEDTAVYYCVRDPRMFYGMDVWGQGTTVTVSS
VL: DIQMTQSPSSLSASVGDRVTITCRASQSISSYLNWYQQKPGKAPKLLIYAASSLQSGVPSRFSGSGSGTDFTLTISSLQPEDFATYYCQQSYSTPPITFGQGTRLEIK
- 100 nM Ag Bound (RU) [1]: 46 RU
- Kd [1]: 361 nM
- koff [1]: 0.0389 s⁻¹
- kon [1]: 108000 M⁻¹ s⁻¹
- t1/2 [1]: 0.3 min
- 100 nM Ag Bound (RU) [2]: 294 RU
- Kd [2]: 0.264 nM
- koff [2]: 0.000142 s⁻¹
- kon [2]: 538000 M⁻¹ s⁻¹
- t1/2 [2]: 81 min
- 100 nM Ag Bound (RU) [3]: 61 RU
- Kd [3]: 84.9 nM
- koff [3]: 0.014 s⁻¹
- kon [3]: 165000 M⁻¹ s⁻¹
- t1/2 [3]: 0.8 min
- 100 nM Ag Bound (RU) [4]: 257 RU
- Kd [4]: 0.292 nM
- koff [4]: 0.000135 s⁻¹
- kon [4]: 461000 M⁻¹ s⁻¹
- t1/2 [4]: 86 min
- EC50 (human CD63 [5]): 4.4 nM
- binding ratio at 3.7 nM vs NIH3T3 (human CD63 [5]): 7 fold
- EC50 (human CD63 [6]): 8.1 nM
- binding ratio at 3.7 nM vs NIH3T3 (human CD63 [6]): 57 fold
- EC50 (human CD63 [7]): 0.98 nM
- binding ratio at 3.7 nM vs NIH3T3 (human CD63 [7]): 188 fold

B2: H4H11992P2 (antibody, V domains shown)
VH: B1 VH with G15R, T30D, I57T, L58K, K76Y, A77N, S84N, K87R, M102S, F103Y
VL: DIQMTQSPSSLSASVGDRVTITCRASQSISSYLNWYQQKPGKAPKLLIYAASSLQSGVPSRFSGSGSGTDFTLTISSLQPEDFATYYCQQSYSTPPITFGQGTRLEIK
- 100 nM Ag Bound (RU) [1]: 30 RU
- Kd [1]: 12300 nM
- koff [1]: 0.0814 s⁻¹
- kon [1]: 6600 M⁻¹ s⁻¹
- t1/2 [1]: 0.1 min
- 100 nM Ag Bound (RU) [2]: 358 RU
- Kd [2]: 1.05 nM
- koff [2]: 0.000682 s⁻¹
- kon [2]: 647000 M⁻¹ s⁻¹
- t1/2 [2]: 17 min
- 100 nM Ag Bound (RU) [3]: 53 RU
- Kd [3]: 213 nM
- koff [3]: 0.0267 s⁻¹
- kon [3]: 125000 M⁻¹ s⁻¹
- t1/2 [3]: 0.4 min
- 100 nM Ag Bound (RU) [4]: 304 RU
- Kd [4]: 0.401 nM
- koff [4]: 0.000257 s⁻¹
- kon [4]: 641000 M⁻¹ s⁻¹
- t1/2 [4]: 45 min
- EC50 (human CD63 [5]): 3.6 nM
- binding ratio at 3.7 nM vs NIH3T3 (human CD63 [5]): 4 fold
- EC50 (human CD63 [6]): 5.5 nM
- binding ratio at 3.7 nM vs NIH3T3 (human CD63 [6]): 33 fold
- EC50 (human CD63 [7]): 1.5 nM
- binding ratio at 3.7 nM vs NIH3T3 (human CD63 [7]): 87 fold

The next binders have a lower Kd [1] than those just listed; values first:

- 100 nM Ag Bound (RU) [1]: 81 RU
- Kd [1]: 124 nM
- koff [1]: 0.0198 s⁻¹
- kon [1]: 160000 M⁻¹ s⁻¹
- t1/2 [1]: 0.6 min
- 100 nM Ag Bound (RU) [2]: 338 RU
- Kd [2]: 0.104 nM
- koff [2]: 4.96e-05 s⁻¹
- kon [2]: 482000 M⁻¹ s⁻¹
- t1/2 [2]: 233 min
- 100 nM Ag Bound (RU) [3]: 94 RU
- Kd [3]: 30.6 nM
- koff [3]: 0.00591 s⁻¹
- kon [3]: 193000 M⁻¹ s⁻¹
- t1/2 [3]: 2 min
- 100 nM Ag Bound (RU) [4]: 275 RU
- Kd [4]: 0.209 nM
- koff [4]: 8.99e-05 s⁻¹
- kon [4]: 430000 M⁻¹ s⁻¹
- t1/2 [4]: 128 min
- EC50 (human CD63 [5]): 5.1 nM
- binding ratio at 3.7 nM vs NIH3T3 (human CD63 [5]): 6 fold
- EC50 (human CD63 [6]): 4.8 nM
- binding ratio at 3.7 nM vs NIH3T3 (human CD63 [6]): 66 fold
- EC50 (human CD63 [7]): 0.93 nM
- binding ratio at 3.7 nM vs NIH3T3 (human CD63 [7]): 168 fold
B3: H4H11990P2 (antibody, V domains shown)
VH: QVQLVESGGGLVKPGGSLRLSCATSGFTFTDYFMNWIRQAPGKGLEWVSYISNSGSIRYYADSVRGRFSISRDNAKNSLYLQMSSLRADDTAVYYCVRDPRQIYGMDVWGQGTTVTVSS
VL: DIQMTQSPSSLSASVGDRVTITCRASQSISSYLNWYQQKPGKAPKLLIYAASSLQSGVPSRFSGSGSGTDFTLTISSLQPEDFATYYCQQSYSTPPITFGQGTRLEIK

- 100 nM Ag Bound (RU) [1]: 74 RU
- Kd [1]: 145 nM
- koff [1]: 0.0192 s⁻¹
- kon [1]: 132000 M⁻¹ s⁻¹
- t1/2 [1]: 0.6 min
- 100 nM Ag Bound (RU) [2]: 342 RU
- Kd [2]: 0.045 nM
- koff [2]: 1.91e-05 s⁻¹
- kon [2]: 425000 M⁻¹ s⁻¹
- t1/2 [2]: 603 min
- 100 nM Ag Bound (RU) [3]: 106 RU
- Kd [3]: 19.9 nM
- koff [3]: 0.00371 s⁻¹
- kon [3]: 186000 M⁻¹ s⁻¹
- t1/2 [3]: 3.1 min
- 100 nM Ag Bound (RU) [4]: 291 RU
- Kd [4]: 0.149 nM
- koff [4]: 6.2e-05 s⁻¹
- kon [4]: 417000 M⁻¹ s⁻¹
- t1/2 [4]: 186 min
- EC50 (human CD63 [5]): 1.9 nM
- binding ratio at 3.7 nM vs NIH3T3 (human CD63 [5]): 11 fold
- EC50 (human CD63 [6]): 1.7 nM
- binding ratio at 3.7 nM vs NIH3T3 (human CD63 [6]): 99 fold
- EC50 (human CD63 [7]): 0.94 nM
- binding ratio at 3.7 nM vs NIH3T3 (human CD63 [7]): 266 fold
B4: H4H11997P2 (antibody, V domains shown)
VH: QVQLVESGGGLVKPGGSLRLSCAASGFTFSDYYMNWIRQAPGKGLEWITYINNGGYTKYYADSVKGRFIISRDNTKNSVHLQMNSLRAEDTAVYYCVRDPRMYYGMDVWGQGTTVTVSS
VL: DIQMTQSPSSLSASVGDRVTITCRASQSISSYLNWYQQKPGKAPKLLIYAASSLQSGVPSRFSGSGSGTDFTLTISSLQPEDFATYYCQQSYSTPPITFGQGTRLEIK
